Data on two molecules can be found in patent publication US10143747B2, “Breast cancer therapeutics” (IMBA—INSTITUT FÜR MOLEKULARE BIOTECHNOLOGIE GMBH, priority 2010, dated 2018).

For assay [1], the system named is NFκB pathway / CyclinD1. The assay is described as follows: NFκB pathway activation and CyclinD1 expression in mammary epithelial cells after MPA in vivo. Further details: species or system mouse. The note with it: three day MPA treatment, control females. The source says: a, Activation of the NFκB pathway and CyclinD1 expression by MPA. Nulliparous RANK^Δmam and littermate control females were s.c. implanted with slow-release MPA pellets or treated with sham surgery. a, In situ immunostaining to detect phosphorylated (P) IκBα in mammary epithelial cells of RANK^Δmam and littermate control females after 3 d MPA treatment. b, Western blot analysis of CyclinD1 and RANKL in isolated mammary epithelial cells from RANK^Δmam and littermate control females after 3 d MPA treatment. Recombinant, murine sRANKL protein is shown for molecular size comparison. β-actin is shown as a loading control.
The human epithelial breast tumor cell line SKBR3 and primary non-transformed mouse mammary epithelial cells were left untreated or stimulated with recombinant murine RANKL^ref. 9. Adenocarcinomas were isolated from control and mutant mice and total protein lysates prepared. Western blotting was carried out using standard protocols. Briefly, blots were blocked with 5% BSA in 1×TBS 0.1% Tween-20 (TBST) for 1 hour and incubated with primary antibody overnight at 4° C. (diluted in TBST according to the manufactures protocol). […]

Assay [2] relates to primary mouse mammary epithelial cells. The assay is described as follows: DNA damage responses (cell cycle arrest, apoptosis) in primary mouse mammary epithelial cells. It counts as cell-based. As to conditions: RANKL 1 μg/ml. As to the method: a, Western Blot analysis for γH2AX, phosphorylated (P) Chk1, total Chk1, p53 and β-actin in isolated primary mouse mammary gland epithelial cells in response to γ-irradiation (2 Gray) in the presence (1 μg/ml) or absence of RANKL stimulation. b,c, FACS analysis of propidium iodide (PI) stained b, mammary epithelial cells and c, SKBR3 human breast cancer cells after γ-irradiation (2 Gray) in the absence or presence (1 μg/ml) of RANKL. Data are representative of at least 3 experiments. Apoptotic cells with a DNA content <2n appear in the sub-G1 region. Percent of cells in sub-G1 (M1), G1-phase (M2), S/G2/M-phase (M3) as well as polyploid cells with a DNA content >4n are given for the indicated time points.
a,b, FACS analysis of a, mammary epithelial cells and b, SKBR3 human breast cancer cells incubated with the genotoxic agent doxorubicin (Dox, 1 μM) in the presence (1 μg/ml) or absence of RANKL. Data are representative of at least 3 experiments. Percent of cells in sub-G1 (M1), G1-phase (M2), S/G2/M-phase (M3) as well as polyploid cells with a DNA content >4n are given for 24 and 36 hours after doxorubicin treatment. c, mRNA expression of pro-apoptotic genes Bim, Puma, and Noxa 6 hours after γ-irradiation (2 Gray) in the presence (1 μg/ml) or absence of RANKL stimulation. Data are shown as fold change compared to control (+/−sem). n=3). *P<0.05; **P<0.005 (Student's t-test).
For measurement of cell cycle arrest and apoptosis primary mouse mammary epithelial cells and SKBR3 human breast cancer cells were seeded at a cell-density of 100000 cells/well in a 6-well plate and allowed to grow for 24 hours. Cells where then treated with doxorubicin (1 μM) or γ-irradiation (2 Gray) in the absence or presence of recombinant RANKL (1 μg/ml). Cell cycle arrest and numbers of dead cells were determined using propidium iodine staining. To determine in vivo mammary gland epithelial cell death, control and RANK^Δmam littermate females were γ-irradiated with a total dose of 5 Gray (Gy). Six hours later, mammary glands were isolated and immunostained for active Caspase 3 (Cell Signaling) indicative of apoptosis.

Regarding `CC(=O)O[C@]1(C(C)=O)CC[C@H]2[C@@H]3C[C@H](C)C4=CC(=O)CC[C@]4(C)[C@H]3CC[C@@]21C` [MPA, medroxyprogesterone acetate], in assay [1], the “CyclinD1 protein expression in mammary epithelial cells” value is on record as “induction of CyclinD1 protein expression” and the “nuclear phosphorylated IκBα in mammary epithelial cells” value is reported as “nuclear accumulation of phosphorylated IκBα”.

B1: RANKL: recombinant RANKL protein, ligand of RANK, used as stimulus (1 μg/ml or 1 μg i.p.) (protein, UniProt O35235 139-316, looked up)
Tumor necrosis factor ligand …: FSGAPAMMEGSWLDVAQRGKPEAQPFAHLTINAASIPSGSHKVTLSSWYHDRGWAKISNMTLSNGKLRVNQDGFYYLYANICFRHHETSGSVPTDYLQLMVYVVKTSIKIPSSHNLMKGGSTKNWSGNSEFHFYSINVGGFFKLRAGEEISIQVSNPSLLDPDQDATYFGAFKVQDID
In the case of B1, the “γ-irradiation-induced upregulation of proapoptotic Bim, Puma and Noxa mRNA” value in assay [2] (6 hours after γ-irradiation 2 Gray, cell type not stated) is “did not occur in the presence of RANKL”. In addition, in assay [2] (doxorubicin 1 μM), the “early cell cycle arrest after DNA damage” value was “did not alter the early cell cycle arrest” and the “protection from cell death” value was “marked protection from cell death”. In assay [2] (γ-irradiation 2 Gray), the “early cell cycle arrest after DNA damage” value is given as “did not alter the early cell cycle arrest”; the “induction of γH2AX and p53, activation of Chk1 (DNA damage response markers)” value was “did not alter induction of γH2AX and p53 or activation of Chk1”; the “protection from cell death” value was “marked protection from cell death”.
